According to US20150152192A1 (SAMSUNG ELECTRONICS, published 2015):
Changes are numbered by the printed parent chain.

T1: mouse Ang2 (Accession # NP-031452) (R&D Systems) (mouse, UniProt O35608 19-496, limits assumed)
T1 construct: Bought protein; also called mAng2
T1 sequence (looked up): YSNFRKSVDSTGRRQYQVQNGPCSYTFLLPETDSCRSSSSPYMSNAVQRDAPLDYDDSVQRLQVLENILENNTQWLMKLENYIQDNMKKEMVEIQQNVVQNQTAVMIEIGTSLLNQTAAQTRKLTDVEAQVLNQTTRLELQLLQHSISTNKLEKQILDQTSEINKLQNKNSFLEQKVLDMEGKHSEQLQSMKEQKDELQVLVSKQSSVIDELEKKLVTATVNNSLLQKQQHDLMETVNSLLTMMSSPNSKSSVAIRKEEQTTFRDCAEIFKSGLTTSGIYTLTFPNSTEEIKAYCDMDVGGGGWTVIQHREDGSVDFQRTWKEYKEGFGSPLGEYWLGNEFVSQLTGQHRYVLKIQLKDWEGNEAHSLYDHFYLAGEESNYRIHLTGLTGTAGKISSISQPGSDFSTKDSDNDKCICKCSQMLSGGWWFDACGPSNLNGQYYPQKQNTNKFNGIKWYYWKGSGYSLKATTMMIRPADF

T2: recombinant hAng2 (C-His, R&D Systems) (human, UniProt O15123 19-496)
T2 construct: Bought protein captured on an anti-His chip; not shown: C-terminal His tag
T2 sequence: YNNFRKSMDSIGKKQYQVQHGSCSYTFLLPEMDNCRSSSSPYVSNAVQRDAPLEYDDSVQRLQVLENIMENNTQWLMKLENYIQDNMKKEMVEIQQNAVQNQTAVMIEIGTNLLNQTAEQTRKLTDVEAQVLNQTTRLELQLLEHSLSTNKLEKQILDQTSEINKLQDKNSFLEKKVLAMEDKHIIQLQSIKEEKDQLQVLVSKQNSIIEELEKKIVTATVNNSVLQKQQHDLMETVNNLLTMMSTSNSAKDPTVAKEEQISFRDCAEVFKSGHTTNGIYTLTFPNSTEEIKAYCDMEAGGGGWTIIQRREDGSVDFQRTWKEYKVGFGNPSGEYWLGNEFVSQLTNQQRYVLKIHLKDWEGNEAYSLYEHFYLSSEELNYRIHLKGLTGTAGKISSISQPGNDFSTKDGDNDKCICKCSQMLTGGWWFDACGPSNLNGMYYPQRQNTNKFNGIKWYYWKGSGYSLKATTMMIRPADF

B1: SAIT-ANG-2-AB-4-F11 (IgG form) (antibody, V domains shown)
VH: EVQLLESGGGLVQTGGSLRLSCAASGFTFSDYAMSWVRQAPGKGLEWVSSIYPDDGNTYYADSVKGRFTISRDNSKNTLYLQMNSLRAEDTAVYYCAKHPVRLNLHPMYYYYGMDVWGQGTLVTVSS
VL: QSVLTQPPSASGTPGQRVTISCTGSSSNIGNNAVSWYQQLPGTAPKLLIYSDSQRPSGVPDRFSGSKSGTSASLAISGLRSEDEADYYCATWDYSLSAYVFGGGTKLTVLG
notes: Intact human antibody with human IgG1 constant region
B2: SAIT-ANG-2-AB-4-C11 (IgG form) (antibody, V domains shown)
VH: EVQLLESGGGLVQPGGSLRLSCAASGFTFSDYAMSWVRQAPGKGLEWVSSIYPDDGNTYYADSVKGRFTISRDNSKNTLYLQMNSLRAEDTAVYYCARHTSHHTSIDGYYYYGMDGWGQGTLVTVSS
VL: B1 VL with A33D, Q54K, A90G, T91S, A98G
notes: as for B1
B3: SAIT-ANG-2-AB-3-D3 (IgG form) (antibody, V domains shown)
VH: EVQLLESGGGLVQPGGSLRLSCAASGFTFSDYDMSWVRQAPGKGLEWVSGISSDDGNTYYADSVKGRFTISRDNSKNTLYLQMNSLRAEDTAVYYCARPTIDKYTLRGYYSYGMDVWGQGTLVTVSS
VL: B1 VL with N31S, A33Y, S53N, Q54K, A90G, Y94D, S97N, A98G
notes: as for B1
B4: SAIT-ANG-2-AB-8-A5 (IgG form) (antibody, V domains shown)
VH: EVQLLESGGGLVQPGGSLRLSCAASGFTFSDYYMSWVRQAPGKGLEWVSGIYPSGGSTYYADSVKGRFTISRDNSKNTLYLQMNSLRAEDTAVYYCARDPSTLTYAGFDYWGQGTLVTVSS
VL: B1 VL with T23S, A33Y, S35T, S51A, Q54H, A98G
notes: as for B1
B5: SAIT-ANG-2-AB-2-E6 (IgG form) (antibody, V domains shown)
VH: EVQLLESGGGLVQTGGSLRLSCAASGFTFSDYAMSWVRQAPGKGLEWVSAIYPDSGNKYYADSVKGRFTISRDNSKNTLYLQMNSLRAEDTAVYYCARHSSDPKVKSGYYDDGMDVWGQGTLVAVSS
VL: B1 VL with T23S, S35N, S51A, Q54N, A90G, T91S, A98G
notes: Intact human antibody: VH cloned into a vector with the constant region and Fc region of human IgG1, VL into pFUSE2-CLIg-hl2 (light chain constant region)
B6: SAIT-ANG-2-AB-4-F5 (IgG form) (antibody, V domains shown)
VH: EVQLLESGGGLVQPGGSLRLSCAASGFTFSDYDMSWVRQAPGKGLEWVSSISHGDSNKYYADSVKGRFTISRDNSKNTLYLQMNSLRAEDTAVYYCAKSSGIQESPPTYYYYGMDVWGQGTLVTVSS
VL: B1 VL with T23S, N31S, S35N, S51A, Q54N, A90G, T91S, A98G
notes: as for B1
B7: SAIT-ANG-2-AB-7-C9 (IgG form) (antibody, V domains shown)
VH: EVQLLESGGGLVQPGGSLRLSCAASGFTFSNYAMSWVRQAPGKGLEWVSAISSGGGNIYYADSVKGRFTISRDNSKNTLYLQMNSLRAEDTAVYYCAKSGIQPSPPSMSSAYAMDVWGQGTLVTVSS
VL: B1 VL with T23S, A33D, S35Y, S51A, D52N, Q54H, A90G, A98G
notes: as for B1
B8: FLAG-Tagged hAng2 (ligand)
chain: DYKDDDDKYNNFRKSMDSIGKKQYQVQHGSCSYTFLLPEMDNCRSSSSPYVSNAVQRDAPLEYDDSVQRLQVLENIMENNTQWLMKLENYIQDNMKKEMVEIQQNAVQNQTAVMIEIGTNLLNQTAEQTRKLTDVEAQVLNQTTRLELQLLEHSLSTNKLEKQILDQTSEINKLQDKNSFLEKKVLAMEDKHIIQLQSIKEEKDQLQVLVSKQNSIIEELEKKIVTATVNNSVLQKQQHDLMETVNNLLTMMSTSNSAKDPTVAKEEQISFRDCAEVFKSGHTTNGIYTLTFPNSTEEIKAYCDMEAGGGGWTIIQRREDGSVDFQRTWKEYKVGFGNPSGEYWLGNEFVSQLTNQQRYVLKIHLKDWEGNEAYSLYEHFYLSSEELNYRIHLKGLTGTAGKISSISQPGNDFSTKDGDNDKCICKCSQMLTGGWWFDACGPSNLNGMYYPQRQNTNKFNGIKWYYWKGSGYSLKATTMMIRPADF
notes: also called FLAG-Ang2; non-mutated Ang2

Target: T1, mouse Ang2 (Accession # NP-031452) (R&D …)
Experiment: ELISA, antigen coated, IgG, anti-hFc-HRP; 50% binding concentration (Kd)
Experimental: To measure binding of the antibodies prepared above with each antigen, ELISA was performed. A 96-well MaxiSorp™ flat-bottom plate (Nunc) was coated with 5˜20 μg/ml of human Ang2 and mouse Ang2 (Accession # NP_{—}031452) (both, R&D Systems). After that, the plate was washed five times with 0.05% (v/v) Tween-20-containing PBS and then blocked with 1% (v/v) BSA-containing PBS at a room temperature for 2 hours. The anti-Ang2 antibodies in their IgG forms prepared above (0.001, 0.01, 0.1, 1, 10, 100, and 1000 nM) were added to each well of the plate which was then allowed to react at a room temperature for 2 hours.
(§1) Thereafter, the plate was washed five times with 0.05% Tween-20-containing PBS and then, an HRP-conjugated anti-human FC (Anti-hFc-HRP conjugated) antibody (SIGMA) diluted in 1% (v/v) BSA-containing PBS at 1:5,000 ratio (v/v) was added in the amount of 50 μl to each well to react at a room temperature for 1 hour, followed by washing five times with 0.1% (v/v) Tween-20-containing PBS. Finally, 100 μl of TMB substrate (cell signal) was added to each well of the plate to induce color development at a room temperature for 3 min and then, the reaction was ceased by the addition of 50 μl of 5N H₂SO₄ solution and OD450 values were measured on a plate reader (Molecular Devices).

| Binder | Kd [nM] |
| --- | --- |
| B1 | 0.36 |
| B2 | 0.28 |
| B3 | 0.3 |
| B4 | 0.19 |
| B5 | 0.35 |

Target: T2, recombinant hAng2 (C-His, R&D Systems)
Experiment: SPR, BIAcore T100, hAng2-His captured on anti-His CM5 chip, antibody flowed
Experimental: To measure accurate affinities toward an anti-Ang2 antigen, antigen affinities were measured by a SPR method using a BIAcore T100 (GE Healthcare). The SPR method uses refractive index change of light which passes a sensor chip according to the state of materials coated onto the sensor chip, and if an antigen or an antibody is flowed onto a chip coated with the antigen or antibody, it causes changes in refractive index due to their binding and Kd values are thus calculated from the measured values.
First, anti-His antibody was immobilized on a CM5 sensor chip (GE healthcare) up to 8,000 RU levels using a pH 5.0 acetate solution and an amine coupling kit (GE Healthcare). 6 μg/ml of a recombinant hAng2 (C-His, R&D Systems) protein was flowed onto the chip to be captured at 100 to 200 RU levels.

| Binder | Kd [nM] | koff [s⁻¹] | kon [M⁻¹ s⁻¹] |
| --- | --- | --- | --- |
| B1 | 0.44 | 0.000777 | 1.76e+06 |
| B2 | 0.588 | 0.00049 | 833000 |
| B3 | 0.47 | 0.000546 | 1.16e+06 |
| B4 | 0.074 | 0.000327 | 4.4e+06 |
| B6 | 0.589 | 0.00112 | 1.9e+06 |
| B7 | 0.205 | 0.000366 | 1.78e+06 |
| B5 | 0.65 | 0.000795 | 1.22e+06 |

Target: B8
Experiment: competitive ELISA: hTie2-Fc coated, 400 ng/ml FLAG-hAng2 plus IgG, anti-FLAG-HRP
Experimental: To verify molecular interaction of the bound assemblies, a competitive ELISA was performed. A 96-well MaxiSorp™ flat-bottom plate (Nunc) was coated with […] of hTie2-Fc (R&D Systems), which is a protein with the Fc of human IgG1 bound thereto. After that, the plate was washed five times with 0.05% (v/v) Tween-20-containing PBS (Phosphate Buffer Saline) and then blocked with 1% (v/v) BSA (Bovine serum albumin; Sigma)-containing PBS at a room temperature for 2 hours.
as §1, with “an HRP-conjugated anti-FLAG antibody (SIGMA)” for “an HRP-conjugated anti-human FC (Anti-hFc-HRP conjugated) antibody (SIGMA)”, “amount of 100 μl to” for “amount of 50 μl to”, “for 3 min. Then, the reaction” for “for 3 min and then, the reaction”

| Binder | IC50 [nM] |
| --- | --- |
| B1 | 0.37 |
| B2 | 0.421 |
| B3 | 0.44 |
| B4 | 0.341 |
| B6 | 1.52 |
| B7 | 0.392 |
| B5 | 0.605 |

Target: T3, integrin alpha5beta1 (α5β1; R&D systems) (human, UniProt P08648 42-995; P05556 21-728, limits assumed)
T3 construct: Bought heterodimer
T3 sequence (P08648 42-995 limits assumed, chain 1 of 2): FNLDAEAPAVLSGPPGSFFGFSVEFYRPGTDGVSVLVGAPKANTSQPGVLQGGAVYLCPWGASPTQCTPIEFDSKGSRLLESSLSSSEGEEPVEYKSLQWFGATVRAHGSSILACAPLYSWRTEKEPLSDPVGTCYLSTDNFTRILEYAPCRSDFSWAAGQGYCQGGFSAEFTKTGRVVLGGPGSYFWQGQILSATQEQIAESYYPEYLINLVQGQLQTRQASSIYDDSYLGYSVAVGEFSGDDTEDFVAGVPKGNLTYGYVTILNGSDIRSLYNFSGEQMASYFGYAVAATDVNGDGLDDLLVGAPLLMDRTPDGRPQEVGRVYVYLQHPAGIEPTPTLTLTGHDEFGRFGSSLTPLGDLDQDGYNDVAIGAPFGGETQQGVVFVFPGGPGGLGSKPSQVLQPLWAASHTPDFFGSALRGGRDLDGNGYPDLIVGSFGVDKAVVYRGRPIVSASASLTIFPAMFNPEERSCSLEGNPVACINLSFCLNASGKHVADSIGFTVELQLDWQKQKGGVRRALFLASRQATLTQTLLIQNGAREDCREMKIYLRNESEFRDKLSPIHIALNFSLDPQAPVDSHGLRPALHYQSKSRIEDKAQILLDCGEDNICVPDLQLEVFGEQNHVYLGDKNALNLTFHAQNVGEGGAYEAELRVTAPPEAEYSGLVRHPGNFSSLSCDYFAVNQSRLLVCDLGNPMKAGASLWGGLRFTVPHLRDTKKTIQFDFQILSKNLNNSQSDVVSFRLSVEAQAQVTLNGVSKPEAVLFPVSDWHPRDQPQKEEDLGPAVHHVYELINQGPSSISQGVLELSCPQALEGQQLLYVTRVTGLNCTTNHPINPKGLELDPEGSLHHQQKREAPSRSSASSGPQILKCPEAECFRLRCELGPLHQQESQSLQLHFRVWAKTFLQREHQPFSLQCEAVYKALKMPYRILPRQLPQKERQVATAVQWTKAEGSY
T3 sequence (P05556 21-728 limits assumed, chain 2 of 2): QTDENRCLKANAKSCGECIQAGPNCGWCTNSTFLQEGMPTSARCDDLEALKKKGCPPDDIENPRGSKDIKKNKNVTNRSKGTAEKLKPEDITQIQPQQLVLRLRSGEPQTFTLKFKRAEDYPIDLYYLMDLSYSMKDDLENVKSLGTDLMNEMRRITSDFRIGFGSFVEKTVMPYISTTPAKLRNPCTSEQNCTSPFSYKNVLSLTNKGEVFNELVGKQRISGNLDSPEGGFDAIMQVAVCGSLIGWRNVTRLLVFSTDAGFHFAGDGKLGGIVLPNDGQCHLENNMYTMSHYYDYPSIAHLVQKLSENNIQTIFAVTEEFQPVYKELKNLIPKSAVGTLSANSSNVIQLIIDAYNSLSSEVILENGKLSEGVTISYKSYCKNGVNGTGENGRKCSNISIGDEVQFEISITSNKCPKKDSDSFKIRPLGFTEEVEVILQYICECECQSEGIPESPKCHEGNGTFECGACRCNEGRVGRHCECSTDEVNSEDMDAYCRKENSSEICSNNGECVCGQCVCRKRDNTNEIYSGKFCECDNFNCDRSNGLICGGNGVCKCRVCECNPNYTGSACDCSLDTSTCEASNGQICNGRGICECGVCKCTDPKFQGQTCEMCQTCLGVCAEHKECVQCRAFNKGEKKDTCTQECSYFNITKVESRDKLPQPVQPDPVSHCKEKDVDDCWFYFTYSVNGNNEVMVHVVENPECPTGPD
Experiment: ELISA: integrin alpha5beta1 coated at 5 ug/ml, FLAG-Ang2 at 10 ug/ml, detection with anti-FLAG-HRP, A450
Experimental: After that, an anti-FLAG antibody (Sigma) conjugated with horseradish peroxidase (HRP) was added to react, and the plate was washed again five times with PBS-t. Bindings between Ang2 and the above the integrin were identified indirectly by measuring the amounts of the anti-FLAG antibody remaining in the ELISA plate via color development using TMB (3,3,5,5-tetramethylbenzidine) as a substrate of HRP. As positive controls, control antibody 1 (Regeneron Ang2 antibody) and control antibody 2 (Astra Zeneca Ang2 antibody) were used. Also, to show the background, a group coated with BSA instead of integrin was used.

| Binder | binding result |
| --- | --- |
| B8 | binds |
